The results in this text go back to article PMC5555194, “Disease-linked mutations in factor H reveal pivotal role of cofactor activity in self-surface–selective regulation of complement activation” (The Journal of Biological Chemistry, 2017).

Values joined by “and” are separate entries in the source; they are usually repeats but may differ in a detail not shown here. Equal entries are not always repeated.

One may read the Kd as the free concentration of one partner at which half of the binding sites on the other are occupied at equilibrium, for simple one-to-one binding. High values mean lower affinity, low ones higher affinity.

Assay [1] concerns the target T1, C3b (human, UniProt P01024 23-667; P01024 749-1663).
T1 construct: Amine-coupled to the sensor chip; source: bought: Complement Technology (plasma-derived, human)
Kind of assay: SPR; C3b amine-coupled to a Biacore C1 chip; dilution series of CFH (from 2.5 to 0.019 uM), preincubated with or without a 2-fold molar excess of PspCN, flowed over; Biacore T200, 25 °C, 10 mM HEPES, 150 mM NaCl, 0.05% P20; 1:1 steady-state model; three experiments on different chips. As to conditions: both partners purified. Background: SPR reads the build-up and loss of mass on a sensor chip optically.

Assay [2] deals with T1, C3b. Described as above. As to conditions: both partners purified. This is another data set of the same source.

T1 sequence (P01024 23-667, chain 1 of 2): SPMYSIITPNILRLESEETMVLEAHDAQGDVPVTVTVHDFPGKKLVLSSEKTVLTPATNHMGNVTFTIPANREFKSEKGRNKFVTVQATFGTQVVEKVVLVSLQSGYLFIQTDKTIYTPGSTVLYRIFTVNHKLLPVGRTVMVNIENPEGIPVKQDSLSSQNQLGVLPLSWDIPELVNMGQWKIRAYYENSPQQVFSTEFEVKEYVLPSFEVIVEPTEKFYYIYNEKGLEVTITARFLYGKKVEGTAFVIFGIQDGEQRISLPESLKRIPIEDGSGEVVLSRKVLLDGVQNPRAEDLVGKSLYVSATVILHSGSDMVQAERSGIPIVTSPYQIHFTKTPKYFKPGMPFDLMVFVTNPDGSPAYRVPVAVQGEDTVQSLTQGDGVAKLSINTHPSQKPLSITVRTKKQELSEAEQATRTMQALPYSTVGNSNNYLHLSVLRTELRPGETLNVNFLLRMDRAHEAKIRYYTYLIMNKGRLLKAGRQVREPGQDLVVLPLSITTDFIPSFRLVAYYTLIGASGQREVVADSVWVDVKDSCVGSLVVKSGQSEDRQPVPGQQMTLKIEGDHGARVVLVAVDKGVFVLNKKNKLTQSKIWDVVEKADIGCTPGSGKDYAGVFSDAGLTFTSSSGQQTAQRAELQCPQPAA
T1 sequence (P01024 749-1663, chain 2 of 2): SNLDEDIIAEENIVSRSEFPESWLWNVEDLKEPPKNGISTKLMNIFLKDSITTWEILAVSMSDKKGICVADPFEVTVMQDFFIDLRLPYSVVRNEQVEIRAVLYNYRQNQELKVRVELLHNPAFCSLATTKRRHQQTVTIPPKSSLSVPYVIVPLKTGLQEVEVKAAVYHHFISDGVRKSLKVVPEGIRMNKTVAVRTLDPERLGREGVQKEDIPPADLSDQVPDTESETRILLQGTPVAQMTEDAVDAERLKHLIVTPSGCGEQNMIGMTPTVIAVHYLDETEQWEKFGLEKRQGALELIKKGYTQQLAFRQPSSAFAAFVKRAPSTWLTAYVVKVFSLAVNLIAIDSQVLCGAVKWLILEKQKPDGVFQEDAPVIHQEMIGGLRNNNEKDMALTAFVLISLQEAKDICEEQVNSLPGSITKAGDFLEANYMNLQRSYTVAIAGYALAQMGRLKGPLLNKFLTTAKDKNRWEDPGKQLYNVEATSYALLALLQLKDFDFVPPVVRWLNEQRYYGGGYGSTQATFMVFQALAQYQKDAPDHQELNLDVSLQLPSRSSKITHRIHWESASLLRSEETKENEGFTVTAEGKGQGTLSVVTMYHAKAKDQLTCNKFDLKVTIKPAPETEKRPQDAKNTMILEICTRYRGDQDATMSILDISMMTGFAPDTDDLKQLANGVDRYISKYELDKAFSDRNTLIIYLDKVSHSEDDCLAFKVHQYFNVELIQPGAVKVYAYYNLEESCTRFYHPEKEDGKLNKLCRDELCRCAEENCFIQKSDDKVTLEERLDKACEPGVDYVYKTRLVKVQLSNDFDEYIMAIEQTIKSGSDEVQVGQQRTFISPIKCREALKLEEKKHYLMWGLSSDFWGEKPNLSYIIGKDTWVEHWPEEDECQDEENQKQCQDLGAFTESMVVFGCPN

B1: I62-CFH (recombinant human complement factor H, variant Ile-62, Tyr-402, Asp-936) (natural protein, UniProt P08603 19-1231, looked up)
chain: EDCNELPPRRNTEILTGSWSDQTYPEGTQAIYKCRPGYRSLGNIIMVCRKGEWVALNPLRKCQKRPCGHPGDTPFGTFTLTGGNVFEYGVKAVYTCNEGYQLLGEINYRECDTDGWTNDIPICEVVKCLPVTAPENGKIVSSAMEPDREYHFGQAVRFVCNSGYKIEGDEEMHCSDDGFWSKEKPKCVEISCKSPDVINGSPISQKIIYKENERFQYKCNMGYEYSERGDAVCTESGWRPLPSCEEKSCDNPYIPNGDYSPLRIKHRTGDEITYQCRNGFYPATRGNTAKCTSTGWIPAPRCTLKPCDYPDIKHGGLYHENMRRPYFPVAVGKYYSYYCDEHFETPSGSYWDHIHCTQDGWSPAVPCLRKCYFPYLENGYNQNYGRKFVQGKSIDVACHPGYALPKAQTTVTCMENGWSPTPRCIRVKTCSKSSIDIENGFISESQYTYALKEKAKYQCKLGYVTADGETSGSITCGKDGWSAQPTCIKSCDIPVFMNARTKNDFTWFKLNDTLDYECHDGYESNTGSTTGSIVCGYNGWSDLPICYERECELPKIDVHLVPDRKKDQYKVGEVLKFSCKPGFTIVGPNSVQCYHFGLSPDLPICKEQVQSCGPPPELLNGNVKEKTKEEYGHSEVVEYYCNPRFLMKGPNKIQCVDGEWTTLPVCIVEESTCGDIPELEHGWAQLSSPPYYYGDSVEFNCSESFTMIGHRSITCIHGVWTQLPQCVAIDKLKKCKSSNLIILEEHLKNKKEFDHNSNIRYRCRGKEGWIHTVCINGRWDPEVNCSMAQIQLCPPPPQIPNSHNMTTTLNYRDGEKVSVLCQENYLIQEGEEITCKDGRWQSIPLCVEKIPCSQPPQIEHGTINSSRSSQESYAHGTKLSYTCEGGFRISEENETTCYMGKWSSPPQCEGLPCKSPPDISHGVVAHMSDSYQYGEEVTYKCFEGFGIDGPAIAKCLGEKWSHPPSCIKTDCLSLPSFENAIPMGEKKDVYKAGEQVTYTCATYYKMDGASNVTCINSRWTGRPTCRDTSCVNPPTVQNAYIVSRQMSKYPSGERVRYQCRSPYEMFGDEEVMCLNGNWTEPPQCKDSTGKCGPPPPIDNGDITSFPLSVYAPASSVEYQCQNLYQLEGNKRITCRNGQWSEPPKCLHPCVISREIMENYNIALRWTAKQKLYSRTGESVEFVCKRGYRLSSRSHTLRTTCWDGKLEYPTCAKR
modifications: N-glycans trimmed to the first GlcNAc residues (EndoHf)
notes: complement factor H (CFH), human, CCPs 1-20, allotypic variant Ile-62, Tyr-402, Asp-936; Expressed from the vector pPICZaB and secreted; also called I62,D936-CFH; IYD-CFH; source: P. pastoris KM71H, secreted, enzymatically deglycosylated, chromatographically purified
Molecule B1 displayed a Kd in the assay with C3b [1] of 1 to 1.3 µM.

B2: V62-CFH (recombinant human complement factor H, variant Val-62, Tyr-402, Glu-936) (natural protein, UniProt P08603 19-1231, looked up)
chain: EDCNELPPRRNTEILTGSWSDQTYPEGTQAIYKCRPGYRSLGNVIMVCRKGEWVALNPLRKCQKRPCGHPGDTPFGTFTLTGGNVFEYGVKAVYTCNEGYQLLGEINYRECDTDGWTNDIPICEVVKCLPVTAPENGKIVSSAMEPDREYHFGQAVRFVCNSGYKIEGDEEMHCSDDGFWSKEKPKCVEISCKSPDVINGSPISQKIIYKENERFQYKCNMGYEYSERGDAVCTESGWRPLPSCEEKSCDNPYIPNGDYSPLRIKHRTGDEITYQCRNGFYPATRGNTAKCTSTGWIPAPRCTLKPCDYPDIKHGGLYHENMRRPYFPVAVGKYYSYYCDEHFETPSGSYWDHIHCTQDGWSPAVPCLRKCYFPYLENGYNQNYGRKFVQGKSIDVACHPGYALPKAQTTVTCMENGWSPTPRCIRVKTCSKSSIDIENGFISESQYTYALKEKAKYQCKLGYVTADGETSGSITCGKDGWSAQPTCIKSCDIPVFMNARTKNDFTWFKLNDTLDYECHDGYESNTGSTTGSIVCGYNGWSDLPICYERECELPKIDVHLVPDRKKDQYKVGEVLKFSCKPGFTIVGPNSVQCYHFGLSPDLPICKEQVQSCGPPPELLNGNVKEKTKEEYGHSEVVEYYCNPRFLMKGPNKIQCVDGEWTTLPVCIVEESTCGDIPELEHGWAQLSSPPYYYGDSVEFNCSESFTMIGHRSITCIHGVWTQLPQCVAIDKLKKCKSSNLIILEEHLKNKKEFDHNSNIRYRCRGKEGWIHTVCINGRWDPEVNCSMAQIQLCPPPPQIPNSHNMTTTLNYRDGEKVSVLCQENYLIQEGEEITCKDGRWQSIPLCVEKIPCSQPPQIEHGTINSSRSSQESYAHGTKLSYTCEGGFRISEENETTCYMGKWSSPPQCEGLPCKSPPEISHGVVAHMSDSYQYGEEVTYKCFEGFGIDGPAIAKCLGEKWSHPPSCIKTDCLSLPSFENAIPMGEKKDVYKAGEQVTYTCATYYKMDGASNVTCINSRWTGRPTCRDTSCVNPPTVQNAYIVSRQMSKYPSGERVRYQCRSPYEMFGDEEVMCLNGNWTEPPQCKDSTGKCGPPPPIDNGDITSFPLSVYAPASSVEYQCQNLYQLEGNKRITCRNGQWSEPPKCLHPCVISREIMENYNIALRWTAKQKLYSRTGESVEFVCKRGYRLSSRSHTLRTTCWDGKLEYPTCAKR
modifications: N-glycans trimmed to the first GlcNAc residues (EndoHf)
notes: complement factor H (CFH), human, CCPs 1-20, allotypic variant Val-62, Tyr-402, Glu-936; Expressed from the vector pPICZaB and secreted; also called V62,E936-CFH; recombinant CFH; source: P. pastoris KM71H, secreted, enzymatically deglycosylated, chromatographically purified
B2 returned an equilibrium dissociation constant (Kd) with C3b [2] of 0.27 µM.

B3: R53H-CFH (on Ile-62 background) (natural protein, human, UniProt P08603 19-1231, looked up)
chain: EDCNELPPRRNTEILTGSWSDQTYPEGTQAIYKCHPGYRSLGNIIMVCRKGEWVALNPLRKCQKRPCGHPGDTPFGTFTLTGGNVFEYGVKAVYTCNEGYQLLGEINYRECDTDGWTNDIPICEVVKCLPVTAPENGKIVSSAMEPDREYHFGQAVRFVCNSGYKIEGDEEMHCSDDGFWSKEKPKCVEISCKSPDVINGSPISQKIIYKENERFQYKCNMGYEYSERGDAVCTESGWRPLPSCEEKSCDNPYIPNGDYSPLRIKHRTGDEITYQCRNGFYPATRGNTAKCTSTGWIPAPRCTLKPCDYPDIKHGGLYHENMRRPYFPVAVGKYYSYYCDEHFETPSGSYWDHIHCTQDGWSPAVPCLRKCYFPYLENGYNQNYGRKFVQGKSIDVACHPGYALPKAQTTVTCMENGWSPTPRCIRVKTCSKSSIDIENGFISESQYTYALKEKAKYQCKLGYVTADGETSGSITCGKDGWSAQPTCIKSCDIPVFMNARTKNDFTWFKLNDTLDYECHDGYESNTGSTTGSIVCGYNGWSDLPICYERECELPKIDVHLVPDRKKDQYKVGEVLKFSCKPGFTIVGPNSVQCYHFGLSPDLPICKEQVQSCGPPPELLNGNVKEKTKEEYGHSEVVEYYCNPRFLMKGPNKIQCVDGEWTTLPVCIVEESTCGDIPELEHGWAQLSSPPYYYGDSVEFNCSESFTMIGHRSITCIHGVWTQLPQCVAIDKLKKCKSSNLIILEEHLKNKKEFDHNSNIRYRCRGKEGWIHTVCINGRWDPEVNCSMAQIQLCPPPPQIPNSHNMTTTLNYRDGEKVSVLCQENYLIQEGEEITCKDGRWQSIPLCVEKIPCSQPPQIEHGTINSSRSSQESYAHGTKLSYTCEGGFRISEENETTCYMGKWSSPPQCEGLPCKSPPDISHGVVAHMSDSYQYGEEVTYKCFEGFGIDGPAIAKCLGEKWSHPPSCIKTDCLSLPSFENAIPMGEKKDVYKAGEQVTYTCATYYKMDGASNVTCINSRWTGRPTCRDTSCVNPPTVQNAYIVSRQMSKYPSGERVRYQCRSPYEMFGDEEVMCLNGNWTEPPQCKDSTGKCGPPPPIDNGDITSFPLSVYAPASSVEYQCQNLYQLEGNKRITCRNGQWSEPPKCLHPCVISREIMENYNIALRWTAKQKLYSRTGESVEFVCKRGYRLSSRSHTLRTTCWDGKLEYPTCAKR
modifications: N-glycans trimmed to the first GlcNAc residues (EndoHf)
notes: complement factor H (CFH), human, CCPs 1-20, aHUS-linked mutation R53H on the background Ile-62, Tyr-402, Asp-936; Expressed from the vector pPICZaB and secreted; the native signal peptide is probably absent; also called R53-CFH; source: P. pastoris KM71H, secreted, enzymatically deglycosylated, chromatographically purified
Take B3: the Kd in the assay with C3b [2] is 1.2 µM and 1.8 µM; with C3b [1] it was 1 µM.

B4: S1191L/V1197A-CFH (LA-CFH, on Ile-62 background) (natural protein, human, UniProt P08603 19-1231, looked up)
chain: EDCNELPPRRNTEILTGSWSDQTYPEGTQAIYKCRPGYRSLGNIIMVCRKGEWVALNPLRKCQKRPCGHPGDTPFGTFTLTGGNVFEYGVKAVYTCNEGYQLLGEINYRECDTDGWTNDIPICEVVKCLPVTAPENGKIVSSAMEPDREYHFGQAVRFVCNSGYKIEGDEEMHCSDDGFWSKEKPKCVEISCKSPDVINGSPISQKIIYKENERFQYKCNMGYEYSERGDAVCTESGWRPLPSCEEKSCDNPYIPNGDYSPLRIKHRTGDEITYQCRNGFYPATRGNTAKCTSTGWIPAPRCTLKPCDYPDIKHGGLYHENMRRPYFPVAVGKYYSYYCDEHFETPSGSYWDHIHCTQDGWSPAVPCLRKCYFPYLENGYNQNYGRKFVQGKSIDVACHPGYALPKAQTTVTCMENGWSPTPRCIRVKTCSKSSIDIENGFISESQYTYALKEKAKYQCKLGYVTADGETSGSITCGKDGWSAQPTCIKSCDIPVFMNARTKNDFTWFKLNDTLDYECHDGYESNTGSTTGSIVCGYNGWSDLPICYERECELPKIDVHLVPDRKKDQYKVGEVLKFSCKPGFTIVGPNSVQCYHFGLSPDLPICKEQVQSCGPPPELLNGNVKEKTKEEYGHSEVVEYYCNPRFLMKGPNKIQCVDGEWTTLPVCIVEESTCGDIPELEHGWAQLSSPPYYYGDSVEFNCSESFTMIGHRSITCIHGVWTQLPQCVAIDKLKKCKSSNLIILEEHLKNKKEFDHNSNIRYRCRGKEGWIHTVCINGRWDPEVNCSMAQIQLCPPPPQIPNSHNMTTTLNYRDGEKVSVLCQENYLIQEGEEITCKDGRWQSIPLCVEKIPCSQPPQIEHGTINSSRSSQESYAHGTKLSYTCEGGFRISEENETTCYMGKWSSPPQCEGLPCKSPPDISHGVVAHMSDSYQYGEEVTYKCFEGFGIDGPAIAKCLGEKWSHPPSCIKTDCLSLPSFENAIPMGEKKDVYKAGEQVTYTCATYYKMDGASNVTCINSRWTGRPTCRDTSCVNPPTVQNAYIVSRQMSKYPSGERVRYQCRSPYEMFGDEEVMCLNGNWTEPPQCKDSTGKCGPPPPIDNGDITSFPLSVYAPASSVEYQCQNLYQLEGNKRITCRNGQWSEPPKCLHPCVISREIMENYNIALRWTAKQKLYLRTGESAEFVCKRGYRLSSRSHTLRTTCWDGKLEYPTCAKR
modifications: N-glycans trimmed to the first GlcNAc residues (EndoHf)
notes: complement factor H (CFH), human, CCPs 1-20, aHUS-linked double mutation S1191L/V1197A on the background Ile-62, Tyr-402, Asp-936; Expressed from the vector pPICZaB and secreted; the native signal peptide is probably absent; source: P. pastoris KM71H, secreted, enzymatically deglycosylated, chromatographically purified
In the case of B4, in the assay with C3b [2], the Kd was 0.83 µM and 0.86 µM.
